Common to all, as to format: binding
The subject of assay [1] is GST-fused GPCR C-tails. Nature of the assay: GST-pull down, GPCR C-tails. The conditions noted are these: twelve GPCR C-tails. From the text:
(§1) cDNAs encoding the cytoplasmic C-tail of 14 GPCRs and 2 one-transmembrane receptors were cloned into the pGEX-2T prokaryotic expression vector downstream the GST sequence. The following pGEX constructs were engineered: pGEX-DOR encoding residues 314–372 of the δ-opioid receptor (referring to Swiss-Prot accession number U10504), pGEX-MOR encoding residues 334–400 of the µ-opioid receptor (L29301), pGEX-KOR encoding residues 326–380 of the κ–opioid receptor (U17298), pGEX-ORL1 encoding residues 315–370 of the opioid receptor-like 1 (X77130), pGEX-M1 encoding residues 414–460 of the muscarinic M1 acetylcholine receptor (X52068), pGEX-M2 encoding residues 436–466 of the muscarinic M2 acetylcholine receptor (M16404), pGEX- ADRB1 encoding residues 373–477 of the β1 adrenergic receptor (J03019), pGEX-ADRB2 encoding residues 322–413 of the β2 adrenergic receptor (P07550), pGEX-CALCR encoding residues 407–490 of the calcitonin receptor (L00587), pGEX-CNR2 encoding residues 295–360 of the cannabinoid type 2 receptor (P34972), pGEX-5HT7 encoding residues 380–445 of the 5-hydroxytryptamine 7 receptor (L21195), pGEX-H2 encoding residues 284–349 of the histamine 2 receptor (S57565), pGEX-TXA2 encoding residues 304–343 of the α isoform of the thromboxane A2 receptor (D38081), pGEX-FZ4 encoding residues 493–537 of the frizzled 4 receptor (AB032417), pGEX-TGFβ encoding residues 805–849 of the type III transforming growth factor b receptor (L07594), pGEX-IGF1 encoding residues 1268–1367 of the insulin growth factor I receptor (X04434). Free GST was produced by using the pGEX-4T3 expression vector without insert. The same plasmid was used to clone the cDNA encoding a central domain of GASP-1, corresponding to amino acids 380 to 1073, downstream the GST sequence. All these plasmids were transformed into the Escherichia coli BL21 strain and expression was induced using 1mM of isopropylthiogalactoside for 2 h at 37°C. Bacteria were then pelleted, resuspended in PBS supplemented with cOmplete protease inhibitors (Roche), lysed at 1.5 kbar using a basic Z cell disrupter (constant system) and finally the lysates were cleared by centrifugation (10,000g, 15 min, 4°C).
(§2) cDNAs encoding GASP-1 and GASP-2 were cloned into the pcDNA3 eukaryotic expression vectors. cDNAs encoding GASP-3, -6, -7, and -9 were subcloned into pcDNA3.1 vectors. All the clones were controlled by DNA sequencing. The in vitro production was performed by using the TNT Quick-coupled Transcription/Translation T7 kit (Promega) in presence of [^35S]-Methionine according to the instructions from the manufacturer.
GST-fusion proteins were immobilized on glutathione-coupled Sepharose beads (GE Healthcare) for 1 h at 4°C and incubated with [^35S]-labelled in vitro translated GASP proteins or their truncated or mutated forms in ice-cold binding buffer containing: 20 mM Tris-HCl pH 7.4, 150 mM NaCl, 1 mM EDTA, 1 mM DTT, 10% glycerol and 1% Triton X-100. The mixture was incubated for 1 h at 4°C with gentle rocking. The beads were washed five times with the same ice-cold buffer, resuspended in 30 µl SDS-PAGE sample buffer, incubated 10 min at 65°C, and pelleted for 60 s at 3000 g. The supernatants were then analyzed by SDS-PAGE, the gels were stained with Coomassie blue to visualize GST-fusion proteins, dried and analyzed using a Phosphor-imager (Personal Molecular Imager FX, Biorad) to visualize [^35S]-labelled GASPs. Quantification was performed with the Quantity One software (Biorad). GST-pull down quantification data were analyzed using GraphPad Prism 4.03 (GraphPad Software). Quantifications presented are means of at least three independent experiments. […]

Assay [2] has as its system GST-fused ADRB1 C-tail. Nature of the assay: GST-pull down, ADRB1 C-tail. The conditions noted are these: percent of [35S]-GASP input; pH 7.4, 1 h at 4°C; three independent experiments.
Excerpt: as §1, §2
(§3) GST-fusion proteins were immobilized on glutathione-coupled Sepharose beads (GE Healthcare) for 1 h at 4°C and incubated with [^35S]-labelled in vitro translated GASP proteins or their truncated or mutated forms in ice-cold binding buffer containing: 20 mM Tris-HCl pH 7.4, 150 mM NaCl, 1 mM EDTA, 1 mM DTT, 10% glycerol and 1% Triton X-100. The mixture was incubated for 1 h at 4°C with gentle rocking. The beads were washed five times with the same ice-cold buffer, resuspended in 30 µl SDS-PAGE sample buffer, incubated 10 min at 65°C, and pelleted for 60 s at 3000 g. The supernatants were then analyzed by SDS-PAGE, the gels were stained with Coomassie blue to visualize GST-fusion proteins, dried and analyzed using a Phosphor-imager (Personal Molecular Imager FX, Biorad) to visualize [^35S]-labelled GASPs. Quantification was performed with the Quantity One software (Biorad). GST-pull down quantification data were analyzed using GraphPad Prism 4.03 (GraphPad Software). Quantifications presented are means of at least three independent experiments.

Assay [3] has as its system GST-fused M1 C-tail. Nature of the assay: GST-pull down, M1 C-tail. The note with it: percent of [35S]-GASP input; pH 7.4, 1 h at 4°C; three independent experiments.
Excerpt: as §1, §2, §3

In assay [4] the test system is GST-fused IGF1 (insulin growth factor I receptor) C-tail. Nature of the assay: GST-pull down, IGF1 C-tail. The conditions noted are these: for interaction with IGF1 C-tail: non-GPCR control; for GASP input retained by control IGF1 C-tail: percent of [35S]-GASP input, controls.
Excerpt: as §1, §2, §3

Assay [5] concerns GST-fused DOR C-tail. Nature of the assay: GST-pull down, DOR C-tail. The note with it: percent of [35S]-GASP input; pH 7.4, 1 h at 4°C; three independent experiments.
Excerpt: as §1, §2, §3

The test system of assay [6] is GST-fused CALCR C-tail. Nature of the assay: GST-pull down, CALCR C-tail. The conditions noted are these: percent of [35S]-GASP input; pH 7.4, 1 h at 4°C; three independent experiments. The method, then:
(§4) cDNAs encoding the cytoplasmic C-tail of 14 GPCRs and 2 one-transmembrane receptors were cloned into the pGEX-2T prokaryotic expression vector downstream the GST sequence. […]
(§5) GST-fusion proteins were immobilized on glutathione-coupled Sepharose beads (GE Healthcare) for 1 h at 4°C and incubated with [^35S]-labelled in vitro translated GASP proteins or their truncated or mutated forms in ice-cold binding buffer containing: 20 mM Tris-HCl pH 7.4, 150 mM NaCl, 1 mM EDTA, 1 mM DTT, 10% glycerol and 1% Triton X-100. […] The supernatants were then analyzed by SDS-PAGE, the gels were stained with Coomassie blue to visualize GST-fusion proteins, dried and analyzed using a Phosphor-imager (Personal Molecular Imager FX, Biorad) to visualize [^35S]-labelled GASPs. Quantification was performed with the Quantity One software (Biorad). GST-pull down quantification data were analyzed using GraphPad Prism 4.03 (GraphPad Software). Quantifications presented are means of at least three independent experiments.

Assay [7] deals with GST-fused H2 (histamine H2 receptor) C-tail. Nature of the assay: GST-pull down, H2 C-tail. The conditions noted are these: percent of [35S]-GASP input; pH 7.4, 1 h at 4°C; three independent experiments. The method, then: as §4, §5
Assay [8] relates to GST-fused TGFβ (type III transforming growth factor β receptor) C-tail. Nature of the assay: GST-pull down, TGFβ C-tail. The note with it: for interaction with TGFβ C-tail: non-GPCR control; for GASP input retained by control TGFβ C-tail: percent of [35S]-GASP input, controls.
Excerpt: as §1, §2, §3

The test system of assay [9] is GST-fused TXA2 C-tail. Nature of the assay: GST-pull down, TXA2 C-tail. The note with it: percent of [35S]-GASP input; pH 7.4, 1 h at 4°C; three independent experiments. The method, then:
as §4, §5

B1: GASP-6: member of the second GASP subfamily, without GASP motif (protein)
chain: MGYARKVGWVTAGLVIGAGACYCIYRLTRGRKQNKEKMAEGGSGDVDDAGDCSGARYNDWSDDDDDSNESKSIVWYPPWARIGTEAGTRARARARARATRARRAVQKRASPNSDDTVLSPQELQKVLCLVEMSEKPYILEAALIALGNNAAYAFNRDIIRDLGGLPIVAKILNTRDPIVKEKALIVLNNLSVNAENQRRLKVYMNQVCDDTITSRLNSSVQLAGLRLLTNMTVTNEYQHMLANSISDFFRLFSAGNEETKLQVLKLLLNLAENPAMTRELLRAQVPSSLGSLFNKKENKEVILKLLVIFENINDNFKWEENEPTQNQFGEGSLFFFLKEFQVCADKVLGIESHHDFLVKVKVGKFMAKLAEHMFPKSQE
modifications: [35S]-methionine labelled
Turning to B1, in [1], the “interaction with GPCR C-tails” value is “very weak interactions”. Also, the “GASP input retained by ADRB1 C-tail” value in assay [2] is “around 2%”. In addition, the “GASP input retained by M1 C-tail” value in assay [3] is recorded as “around 2%”. Further, in [4], the “interaction with IGF1 C-tail” value is on record as “No interaction was detected” and the “GASP input retained by control IGF1 C-tail” value is listed as “less than 1%”. Further, the “GASP input retained by DOR C-tail” value in [5] is recorded as “around 2%”. In addition, the “GASP input retained by CALCR C-tail” value in assay [6] is given as “around 2%”. Moreover, the “GASP input retained by H2 C-tail” value in [7] is on record as “around 2%”. In addition, in assay [8], the “interaction with TGFβ C-tail” value is listed as “No interaction was detected” and the “GASP input retained by control TGFβ C-tail” value is “less than 1%”. Moreover, in [9], the “GASP input retained by TXA2 C-tail” value was “around 2%”.

B2: GASP-9: member of the second GASP subfamily, without GASP motif (protein)
chain: MSRVRDAGCVAAGIVIGAGAWYCVYKYTRGRDQTKKRMAKPKNRAVAGTGARARAGLRAGFTIDLGSGFSPPTPVRAEAEDRAQDEASALDTVGAEAVAPAASSAEAQSGAGSQAQEADGAGVGPKAESVVGAAMASAIAPPPGVTEALGAAEAPAMAGAPKVAEAPREAETSRAAVPPGTVVPTEAAAPTEVTEGPGVAAPTKVAEAPGVASPTEAAEAPVPATPTGAAAPTGAAESPGTSGSPRTAVVPGTSAAKKATPGAHTGAIPKATSATGAVPKGGGKGVTRSRNGGKGKGKKSKVEVDELGMGFRPGDGAAAAAAASANGGQAFLAEVPDSEEGESGWTDTESDSDSEPETQRRGRGRRPVAMQKRPFPYEIDEILGVRDLRKVLALLQKSDDPFIQQVALLTLSNNANYSCNQETIRKLGGLPIIANMINKTDPHIKEKALMAMNNLSENYENQGRLQVYMNKVMDDIMASNLNSAVQVVGLKFLTNMTITNDYQHLLVNSIANFFRLLSQGGGKIKVEILKILSNFAENPDMLKKLLSTQVPASFSSLYNSYVESEILINALTLFEIIYDNLRAEVFNYREFNKGSLFYLCTTSGVCVKKIRALANHHDLLVKVKVIKLVNKF
modifications: [35S]-methionine labelled
For the molecule B2, the “interaction with GPCR C-tails” value in [1] is reported as “very weak interactions”. The “GASP input retained by ADRB1 C-tail” value in assay [2] is listed as “around 2%”. For the same molecule, in assay [3], the “GASP input retained by M1 C-tail” value is recorded as “around 2%”. In [4], the “interaction with IGF1 C-tail” value is given as “No interaction was detected” and the “GASP input retained by control IGF1 C-tail” value was “less than 1%”. In assay [5], the “GASP input retained by DOR C-tail” value was “around 2%”. Further, in [6], the “GASP input retained by CALCR C-tail” value is listed as “around 2%”. Also, the “GASP input retained by H2 C-tail” value in assay [7] is “around 2%”. Further, in assay [8], the “interaction with TGFβ C-tail” value is given as “No interaction was detected” and the “GASP input retained by control TGFβ C-tail” value is on record as “less than 1%”. Moreover, in assay [9], the “GASP input retained by TXA2 C-tail” value is “around 2%”.
